This data set is described as follows: yeast display, Sf9 membrane polyspecificity reagent, FACS + sequencing; frameworks hold sequencing errors. The essentials:
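A synthetic nanobody library was expressed on Saccharomyces cerevisiae BJ5465 by galactose induction for 36–48 hours. The library was stained for 1 hour at 4 °C with 10% biotinylated, detergent-solubilized Sf9 membrane reagent and enriched with streptavidin microbeads before FACS. Low and high (top ~1%) gates were set on anti-HA fluorescence for expression and streptavidin fluorescence for reagent binding, and each polyreactivity label reflects the gate of origin.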
Consider “QVQLVESGGALVQAGGSLRLSCAASGIIFRYNAMGWYRQAPGKDREVVAAISWSTGSTYYADSVKGRFTISRDNAKNTVYLQMNSLKPEDTAVYYCNAYWLRHIYNYWGQGSQVTVSS”, for which the “polyreactivity (PSR sort gate)” value is given as “high polyreactivity”.

Consider “QVQLVESGGALVQAGGSLRLSCAASGITFAYYAMGWYRQAPRKERELVASIRTGGSTYYADSVKGRFTISRDNAKNTVYLQMNSLKPEYTAVYYCARRYRTPYDYWGQGTQVTVSS”, for which the “polyreactivity (PSR sort gate)” value is on record as “high polyreactivity”.

Take “QVQLVESGGALVQAGGSLRLSCAASGITFFTNAMGWYRQAPGKERELVAAISSGGRTYYADSVKGRFTISRDNAKNTVYLQMKSLKPEDTAVYYCAKRSYFYPDYYWGQGTQVTVSS”: the “polyreactivity (PSR sort gate)” value is “high polyreactivity”.

As for “QVQLVESGGALVQAGGSLRLSCAASGLIFYYYAMGWNRPAPGKERELVAAISGGGSTYYADSVKGRFTISRDNAKNTVYLQMNSLKPEDTAVYYCAASFRYPSWLYDYWGQGTQVTVSS”, the “polyreactivity (PSR sort gate)” value is given as “low polyreactivity”.

With “QVQLVESGGALVQAGGSLRLSCAASGRTFFGNAMGRYRQAPGKERELVAAISFSGGRTDYADSVKGRFTISRDNAKNTVFLQMNSLKPEDTAVYYCAARTYSAPRNRYYYWGQGTQVTVSS”, the “polyreactivity (PSR sort gate)” value was “high polyreactivity”.

For the sequence “QVQLVESGGALVQAGGSLRLSCAASGRTFGRYAMGWYRQAPGKEREFVASISRRGGTTYYADSVKGRFTLSRDNAKNTVYLQMNSLKPEDTGVYYCAKEGSPTNPWYGSYEYDYWGQGTQVTVSS”, the “polyreactivity (PSR sort gate)” value is on record as “low polyreactivity”.

With “QVQLVESGGALVQAGGSLRLSCAASGRTFLGYGMGWYRQAPGKERVLVAAITSGGGSTYYADSVKGRFTISRDNAKNPVYLQMNSLKPEDTAVYYCSAKYYRAYCPHSRTRGYWGQGTQVTVSS”, the “polyreactivity (PSR sort gate)” value is recorded as “high polyreactivity”.

Consider “QVQLVESGGALVQAGGSLRLSCAASGSIFCYYAMGWYRQAPGKERELVAVINSGGRTNYADSVKGRFTISRDNAKNTVYLQMNSLKPEDTEVYYCAAQGYFVDRAGRYYRGDYWGQGTQVTVSS”, for which the “polyreactivity (PSR sort gate)” value is recorded as “high polyreactivity”.

In the case of “QVQLVESGGALVQAGGSLRLSCAASGSIFVYNAMGWYIPAPGKERELVAAITSDGSTNYADSVKGRFTISRDNATNTVYLQMNSLKPEDNAVYYCNAGNDQYPSFEYDYWGQGTKVTVSS”, the “polyreactivity (PSR sort gate)” value was “low polyreactivity”.

For the sequence “QVQLVESGGALVQAGGSLRLSCAASGSIIVYNDMRSSRQAPGKQRELVAAITSSGGSTYYADSVKGRFTISRDNAKNTVYLQMNSLKPEDTAVYYCNVWDRPLTGYDYRGQGTQVTVSS”, the “polyreactivity (PSR sort gate)” value was “low polyreactivity”.

Regarding “QVQLVESGGALVQAGGSLRLSCAASGSTFRKYSMGWYRQAPGKERELVAVITKSGGSTYYADSVKGRFTISRDNAKNTVYLQMNSLKPEDTAVYYCAARRGGARHDYWGQGTQVTVSS”, the “polyreactivity (PSR sort gate)” value is recorded as “high polyreactivity”.

As to “QVQLVESGGALVQAGGSLRLSCAASGSTFYTYVMGWYRQAPGKQREVVADITWRGGSTYYADSENGRFTISRDNAKNTVYLLMNSLKPEDTPVYYCAALSGLLWYGRMYYWGQGTQVTVSS”, the “polyreactivity (PSR sort gate)” value is given as “high polyreactivity”.

In the case of “QVQLVESGGALVQAGGSLRLSCAASRSIFWINAMGGYRQAPGTERELVADNDVSGGSTYYADTVKGRFTISRDNAKNTVYLKMNSLKPEDTEVYYCAADDYWAYLYYKTSEYDYWGQGTQVTVSS”, the “polyreactivity (PSR sort gate)” value is on record as “low polyreactivity”.

With “QVQLVESGGALVQAGGSLRLSCAASRSTSKNYAMGWYRQAPGKERELVAAITRGTSTNYADSVKGRFTISRDNAKNTVYFQMNSLKPEDSAVYYCNVERHRVWDYQWREEDDYWGQGTQVTVSS”, the “polyreactivity (PSR sort gate)” value is recorded as “low polyreactivity”.

As to “QVQLVESGGALVQAGGSLRLSCAPSGRIFDFKAIGWYRQAPGKEREFVAAITWGGGSTYYADSVKGRFSISRDNAKNSVYLPMNSLKPEVTAVYYCAADGWYYYQSWFNFGMDYWGQGTQVTVSS”, the “polyreactivity (PSR sort gate)” value is on record as “low polyreactivity”.

Turning to “QVQLVESGGALVQAGGSLRLSCASSGFIFGVYDMGWYRQAPGKERELVAAIDSVGSTYYADSVKGRFTISRDNAKNTVYLQMNSLKPEDTAVYYCAKDGSYQAYGYWGQGTQVTVSS”, the “polyreactivity (PSR sort gate)” value is on record as “low polyreactivity”.

Turning to “QVQLVESGGALVQAGGSLSLSCAASGFIFQPYAMGWYRQAPGKERELVAAITSRGGRTYYADSVMGRFTISRDNAKNTVYLQMNSLKPEDSAVYYCNADIYASEYYYWGQGTQVTVSS”, the “polyreactivity (PSR sort gate)” value was “low polyreactivity”.

“QVQLVESGGALVQAGGSLSLSCAASGSIFVGNAMGWYRQAPGKERELVAAINGGGTNYADSVKGRFTFSRDNAKNTVYLQMNSLKPEDTAVYYCAAPVRSNDSAYLHRDNDYWGQGTQVTVSS”: the “polyreactivity (PSR sort gate)” value is “low polyreactivity”.

In the case of “QVQLVESGGALVQARGSLRLSSASSGSTFYPNAMGWYIQARGKEREFVAAISFSDGSTYYADSVKGRFTISRDNANNTVYLQMNSPKAEATAVYYCNKGASPDDYDYWGQGTQVTVSS”, the “polyreactivity (PSR sort gate)” value was “low polyreactivity”.

Consider “QVQLVESGGCLDQAGGSLRLSCAASGRIFNSNTMGWYRQAPGKERELVAAITYSGGSTYYADSVKGRFTISRDNAKNTVYLQMNSLKPEDTAVYYCAADFWEYDGPWYANDYYSWGQGTQVTVSS”, for which the “polyreactivity (PSR sort gate)” value is given as “low polyreactivity”.

For “QVQLVESGGCLDQAGGSLRLSWDASGRTFDFNAIGWYRQAPGKERELVAAITHSAGRTYYADSVKGRFTLSRDIAKNTVYLQMNSLKREDTAVYYCATRYYNYARTSYGYWGQGTQVTVSS”, the “polyreactivity (PSR sort gate)” value is “high polyreactivity”.

Take “QVQLVESGGCLFQAGGSLRLSCAASGFNFPYYAMGWYRQAPGKERELVAAINRGGSTYYADSEKGRFTISRDNAKNTVYLQMNSLKPEDTAVFYCAAGYPSWYYGYPYDSWGQGTQVNVSS”: the “polyreactivity (PSR sort gate)” value is on record as “low polyreactivity”.

“QVQLVESGGCLVHAGGSLRLSCAASGRIFYTYAMGWYRQSPGNESELVAAISSRTVSTKYADSVKGRFTISRDNAKYTVYLQMNSLKPEDTAVYYCNVYSLRYGYDYCGQGTQVTVSS”: the “polyreactivity (PSR sort gate)” value was “high polyreactivity”.

Turning to “QVQLVESGGCLVKAGGSLRISCAASGFTFTKYAMGWYRPAPGKESELVAAINRSGRTYYADSVKGRFTISRDNAKNTVYLQMNSLKPEDTAVYDCAAYTRYQYRAYDYWGQGTQVTVSS”, the “polyreactivity (PSR sort gate)” value is “high polyreactivity”.

For “QVQLVESGGCLVQAGCSLRLSCAASGRTFRTYVMGWYRQAPGKEREFVAGITWSSGSTRYADSVKGRFTISRDNAKNTVYLQMNSLKPEDTAVYYCNATPFYLLYSHTYIQYEGDYWGQGTQVTVSS”, the “polyreactivity (PSR sort gate)” value is recorded as “high polyreactivity”.

For the sequence “QVQLVESGGCLVQAGGRLRLSCAASGFTFNAYSMGWYRQAPGKERELVAAINVSGGITYYADSVKGRFTISRDNAKNTVYLQMNSLKPEDTAVYYCARDIRQYILYGRGDYWGQGTQVTVSS”, the “polyreactivity (PSR sort gate)” value was “low polyreactivity”.

Consider “QVQLVESGGCLVQAGGSHRLSCAASGSIFYIYAMGWYRQAPGKERELVASITFSGDITYYAYSVKGRFTISRDNAKNTFYLHMNSLKPEDTAVYYCAADYHEQSYAVTYDYWGQGTQVTVSS”, for which the “polyreactivity (PSR sort gate)” value is listed as “low polyreactivity”.

In the case of “QVQLVESGGCLVQAGGSIRLSCAAYGSNFDNAMGWSRPATGKERELGAAITSGGITNYADSVKGRFTISRDNAKNTVYLQMNSLKPEDTAVYYCNTLSPTQTKFDYWGQGTQVTVTS”, the “polyreactivity (PSR sort gate)” value is “low polyreactivity”.

Take “QVQLVESGGCLVQAGGSLRFSCAASGLTFGRNAMGWYRQAPGTERELVAAISRSGGRTSYADSVKGRFTMSRDNAKNTVYLQMNSLKPEETAVYYCAARSDVYTHDYWGQGTQVTVSS”: the “polyreactivity (PSR sort gate)” value is “high polyreactivity”.

In the case of “QVQLVESGGCLVQAGGSLRLICASSGFTFRAYAMGWYIKAPGKEREFVAAISRRGGSTSYADSVKGRFTISRDNAKNTVYLQMNSLKPEDTAVYYCAATYQILTTSAHDSWGQGTQVTVSS”, the “polyreactivity (PSR sort gate)” value is “high polyreactivity”.

Take “QVQLVESGGCLVQAGGSLRLMCAASGSTFRVNAMGWSRQAPGKERELVAAITRGGSTNYADSVKGRFTISRDNAKNTVYLQMNSLKPEDTAVYYCNAGDDFGRYVPFSWGRFDYWGQGTQVTESS”: the “polyreactivity (PSR sort gate)” value is listed as “low polyreactivity”.

With “QVQLVESGGCLVQAGGSLRLSCAASGFIFCGNARGGYIPAPGKERELVAVITRSGGSTYADSVKGRFTISRDNAKNTVYLQMNSLKPEVTAVYYCAADQQTWWQYSLINEYDYWGQGTQVTVSS”, the “polyreactivity (PSR sort gate)” value is “low polyreactivity”.

With “QVQLVESGGCLVQAGGSLRLSCAASGFIFDPYVMGWYIQAPGKERELVAAITYNGGRTYYADSVKGRFTISRDNAKNTVYLQMNSLKPEDTAVYYCNKDYRIGQTWYDYWGQVTQVTVSS”, the “polyreactivity (PSR sort gate)” value is recorded as “low polyreactivity”.

In the case of “QVQLVESGGCLVQAGGSLRLSCAASGFIFSGYVMGWYRQAPGKERELVARIDGGGTTNYADSVKGRFTISRDNAKNTVYLQMNSLKPADTAVYYCNARFGEGFDYWGQGTQVTVSS”, the “polyreactivity (PSR sort gate)” value was “low polyreactivity”.

Regarding “QVQLVESGGCLVQAGGSLRLSCAASGFIFSSYAMGWYRQAPGKERELVAAISVSGGSTNYADSVKGRFTISRDNAKNTVFLQMNSLKPEDTAVYYCAARVRDSLVYGGWDDYWGQGTQVTVSS”, the “polyreactivity (PSR sort gate)” value is “high polyreactivity”.

As to “QVQLVESGGCLVQAGGSLRLSCAASGFTFIRYAMGWYRQAPGKERELVAAITVSGTRTYYADSVKGRFTISRDNAKNTVYLQMNSLKPEDTAVYYCNARDVYTGYGMGYWGQGSQVTVSS”, the “polyreactivity (PSR sort gate)” value is given as “high polyreactivity”.

As for “QVQLVESGGCLVQAGGSLRLSCAASGFTFRWYTMGWYRQAPGKERELVAAITGSGCTTYYADSVKGRFTISRDYAKNSVYLQMNSLKPVDTAVYYCAVVTGSFRTRYTYYYLGQGTQVTVSS”, the “polyreactivity (PSR sort gate)” value is reported as “high polyreactivity”.

Regarding “QVQLVESGGCLVQAGGSLRLSCAASGFTFRYYAMGWYRQAPGKEREFVAAIRSSGTTTSYADSVKGRFRISRDYAKNTVYLQMNSLKPEDTAVYFCAAGYFGPQQYYYWCQGTQVTVSS”, the “polyreactivity (PSR sort gate)” value is given as “high polyreactivity”.

For the sequence “QVQLVESGGCLVQAGGSLRLSCAASGFTFSRYNMGWYRQAPGKESELVATISWSGSRTYYADSVKGRFTISRDNAKNTVYLQINSLKPDDTAFYYCNFAPHRQVFYTGQYDYWGQGTQVTVSS”, the “polyreactivity (PSR sort gate)” value is recorded as “high polyreactivity”.

“QVQLVESGGCLVQAGGSLRLSCAASGFTFWRNVMGWYRQAPGKERELVAVISRGGSTNYADSVKGRFTISRDNAMNTVYLQMNSLKPEDTAVYYCAKYARGPSKVDYWGQGTQVTVSS”: the “polyreactivity (PSR sort gate)” value is reported as “high polyreactivity”.

Take “QVQLVESGGCLVQAGGSLRLSCAASGGTFHRYAMGGYRQAPGKERELVAAISGSGASTYYADSVKGRFTISRDNAKNTVYLQMNSLKPEDTAVYYCNAYSYPYWYRYYYWGQGTQVTVSS”: the “polyreactivity (PSR sort gate)” value is recorded as “high polyreactivity”.

The record behind these values is the nanobody polyreactivity screen of Harvey et al. (2022).
